According to patent US20130345145A1, “ATIP3 AND BIOLOGICALLY ACTIVE FRAGMENTS THEREOF FOR USE IN THE TREATMENT OF CANCER” (INSTITUT NATIONAL DE LA SANTE ET DE LA RECHERCHE MEDICALE …, priority 2011, published 2013):
Where no end group is shown, it is not given here.

B1: ATIP3BD: basic central domain of ATIP3, residues 410-874 of SEQ ID NO: 1, expressed as GFP fusion (protein, listed as Homo sapiens)
chain: GLTWDANDMVISTDKTMCMSTPVLEPTKVTFSVSPIEATEKCKKVEKGNRGLKNIPDSKEAPVNLCKPSLGKSTIKTNTPIGCKVRKTEIISYPRPNFKNVKAKVMSRAVLQPKDAALSKVTPRPQQTSASSPSSVNSRQQTVLSRTPRSDLNADKKAEILINKTHKQQFNKLITSQAVHVTTHSKNASHRVPRTTSAVKSNQEDVDKASSSNSACETGSVSALFQKIKGILPVKMESAECLEMTYVPNIDRISPEKKGEKENGTSMEKQELKQEIMNETFEYGSLFLGSASKTTTTSGRNISKPDSCGLRQIAAPKAKVGPPVSCLRRNSDNRNPSADRAVSPQRIRRVSSSGKPTSLKTAQSSWVNLPRPLPKSKASLKSPALRRTGSTPSIASTHSELSTYSNNSGNAAVIKYEEKPPKPAFQNGSSGSFYLKPLVSRAHVHLMKTPPKGPSRKNLFTALNA
modifications: GFP fusion; (1)..(409) acidic N-terminal region

Tests used:
microtubule cytoskeleton [1] = experiment: Immunofluorescence intracellular localization in RPE1 cells; format: cell-based, Human; details: RPE1 cells transfected 24 hrs, data not shown
Procedure: Immunofluorescence study was performed as example 2. Briefly, Human retinal pigment epithelial (RPE1) cells were transfected for 24 hrs with GFP-D2N, GFP-D2C or GFP-D2CC constructs prior to fixation in ice-cold methanol and incubation with anti-GFP antibodies as described (page 21, lines 1-9).

MCF7 breast cancer cells = experiment: Xcelligence cell proliferation of stable MCF7 clones; format: cell-based; details: clone D2CC3, MCF7, FIG. 13
Procedure: Stable clones of MCF7 breast cancer cells expressing moderate levels of GFP-D2N (clones D2N6 and D2N8), GFP-D2C (clone D2C6 and a pool of positive cells) and GFP-D2CC (clone Cl3) have been selected in G418 (1 mg/ml)-containing medium for 4 weeks. Detectable expression of a single polypeptide of expected molecular weight in each case was confirmed by western blotting using anti-GFP antibodies.
Cell proliferation was measured using the Xcelligence technology (Roche). Briefly, cell clones were seeded at 15000 cells/well on 96 wells containing gold electrodes and cellular impedance was monitored in real-time for 40 hours.

microtubule cytoskeleton [2] = experiment: Immunofluorescence localization in transfected MCF-7 cells; format: cell-based, human; details: MCF-7 cells transiently transfected 24 h, data not shown
Procedure: (§1) The pEGFP-ATIP3BD plasmid was transiently transfected into human breast cancer MCF-7 cells. Localization of GFP-ATIP3BD fusion protein at the microtubule cytoskeleton was examined by immunofluorescence, and its ability to interact with stabilized microtubules was determined by co-sedimentation assay.
Exponentially growing human breast cancer MCF-7 cells plated on coverslips were transiently transfected (24 h) with pEGFP-ATIP3BD plasmid, and fixed in ice-cold methanol for 5 min prior to incubation for 1 h at room temperature with primary antibodies: anti-GFP monoclonal antibodies (Roche, diluted 1:200) and human anti-alpha-tubulin antibodies clone F2C (diluted 1:10), as described in Rodrigues-Ferreira et al. (PLoS One. 2009; 4(10):e7239 2009). After extensive washing, cells were incubated for 30 min at room temperature with appropriate secondary Cy-2-conjugated anti-human and/or Cy-3-conjugated anti-mouse antibodies (Jackson Laboratories, Interchim, France) diluted 1:500. Coverslips were mounted on glass slides using Glycergel Mounting Medium (DakoCytomation) and examined with a Leica TCS SP2 AOBS confocal microscope using appropriate filters. Image analysis was performed with NIH ImageJ software.

[3] = system: human breast cancer MCF-7 cells; experiment: Clonogenicity experiments; format: cell-based; details: MCF-7 transfected with GFP fusion, G418 selection 3 weeks, compared to GFP
Procedure: For clonogenicity experiments, human breast cancer MCF-7 cells were transfected for 24 h with […] pEGFP-C1 vector or 2 μg of pEGFP-ATIP3BD cDNA. Similar transfection efficiency (50%) was assessed by FACS analysis and cell viability was verified using trypan blue. Cells were then plated at various dilutions in 12 well plates and transfectants were selected by adding geneticin (G418, 1 mg/ml, Gibco) in fresh medium twice a week for 3 weeks. Resistant colonies were stained with 0.5% crystal violet (Sigma) and counted.
The ability of human MCF7 breast cancer cells to form colonies following expression of minimal domains D2N and D2C was analyzed by clonogenicity experiments as described before (see example 2).

stabilized microtubules = experiment: Microtubule co-sedimentation assay; format: binding, human; details: MCF-7 lysate, taxol 20 μM, data not shown
Procedure: as §1
For microtubule cosedimentation assay, human breast cancer MCF-7 cells were transiently transfected (24 h) with pEGFP-ATIP3BD plasmid and incubated for 20 min at 4° C. in PEM buffer (100 mM PIPES, pH 6.9, 1 mM MgSO4, 1 mM EGTA), scraped and sonicated prior to centrifugation at 15000 rpm for 10 min, 4° C. Clarified samples were incubated with taxol (20 μM) in the presence of GTP (1 mM) and DTT (1 mM) for 45 min at 37° C. and were spun at 70 000 g for 30 min at 30° C. through a cushion buffer containing 40% glycerol, 20 μM taxol and 1 mM GTP. The supernatant (S) and pellet (P) fractions were collected separately and subsequently immunoblotted with anti-GFP (Roche) and anti-alpha-tubulin (Sigma) antibodies.

| Molecule | intracellular localization (microtubule cytoskeleton [1]) | factor of reduction of proliferation as compared to clone expressing GFP-ATIP3 (MCF7 breast cancer cells) | localization of GFP fusion protein at the microtubule cytoskeleton (microtubule cytoskeleton [2]) | cell proliferation / number of G418-resistant colonies [3] | co-sedimentation with stabilized microtubules (stabilized microtubules) |
| --- | --- | --- | --- | --- | --- |
| D2CC: domain of ATIP3BD, amino-acid positions 817-874 of SEQ ID NO: 1, 58 amino-acids polypeptide, expressed as GFP fusion (SGNAAVIKYEEKPPKPAFQNGSSGSFYLKPLVSRAHVHLMKTPPKGPSRKNLFTALNA; also: expressed as GFP fusion; listed as Homo sapiens) | remains diffuse in the cytosol | 2 | – | – | – |
| B1 | – | – | localizes at the microtubule cytoskeleton | mimic the inhibitory effects of the entire ATIP3a and ATIP3b proteins | co-sediments with stabilized microtubules |
